Assay results reported in patent US8008547B2, “Glyphosate-N-acetyltransferase (GAT) genes” (E.I. duPont de Nemours, priority 2000, dated 2011).
Residue numbers refer to the chain shown, from its start.

Assays:
[1] = Apparent KM for glyphosate of purified GAT from B. licheniformis strain B6 (spectrophotometric, 235 nm); type: biochemical; details: 200 μM Acetyl CoA, 1 μM purified GAT, pH 7.7, 20% ethylene glycol
Source text: Hyperbolic saturation kinetics were observed (FIG. 5), from which an apparent KM of 2.9±0.2 (SD) mM was obtained.

[2] = KM for Acetyl CoA by mass spectrometric detection of N-acetyl glyphosate; type: biochemical; details: for Km: read-out: apparent KM for Acetyl CoA, 5 mM glyphosate, 0.19 μM GAT, pH 7.7, 50% methanol
Method: Initial reaction rates were determined using mass spectrometric detection of N-acetyl glyphosate. Five μl were repeatedly injected into the instrument and reaction rates were obtained by plotting reaction time vs. area of the integrated peak (FIG. 6). Hyperbolic saturation kinetics were observed (FIG. 7), from which an apparent KM of 2 μM was derived.
KM for Acetyl CoA was measured using the mass spectrometry method with repeated sampling during the reaction. AcetylCoA and glyphosate (ammonium salts) were placed as 50-fold-concentrated stock solutions into a well of a mass spectrometry sample plate. Reactions were initiated with the addition of enzyme appropriately diluted in a volatile buffer such as morpholine acetate or ammonium carbonate, pH 6.8 or 7.7. The sample was repeatedly injected into the instrument and initial rates were calculated from plots of […] and peak area. KM was calculated as for glyphosate.

[3] = Transfer of the propionyl group from propionyl CoA to glyphosate (DTNB); type: biochemical; details: 1 mM propionyl CoA, 5 mM glyphosate or no glyphosate, 30 minutes
Method: The ability of GAT variants (B6 (SEQ ID NO:7), 0—6D10 (SEQ ID NO:448), 17-15H3 (SEQ ID NO:601), and 20-8H12 (SEQ ID NO:816)) to transfer the propionyl group from propionyl CoA to glyphosate was tested in reaction mixtures containing 5 mM glyphosate or no glyphosate. Propionyl CoA was present at 1 mM. After 30 minutes the reactions were terminated and the presence of free […] was determined by the addition of DTNB.

tobacco plants = experiment: Herbicide spray tests of GAT expressing tobacco plants; type: in vivo, Nicotiana tabacum; details: transgenic GAT tobacco; for plant response two weeks after glyphosate spray: 0.5, 2 or 4× glyphosate (1× = 32 oz/acre of 40% ai); for survival after second spray: 8× glyphosate dose three weeks later
Method: Tobacco shoots generated as described in EXAMPLE 9 were excised from the explants and transferred to basal root induction (BRI) medium composed of half-strength Murashige and Skoog (MS) medium, pH 5.7, with 1.5% sucrose, 0.3% Gelrite, 0-200 uM glyphosate and 400 ug/ml Timentin. Rooted plants and axillary shoots were clonally propagated by cutting the stem and transferring it to fresh BRI medium until the desired number of clones was obtained. Rooted plants were carefully removed from the solid medium. Prior to placing the plants into small pots of soil, the roots were washed to remove any remaining Gelrite. A protective plastic cover was kept over the plants for at least one week until the plants were well established.
To determine if GAT expressing tobacco plants could tolerate simulated field rate sprays of glyphosate, clonal lines of several events per GAT variant were tested. A typical test was set up as follows: One clone from each event was sprayed with 1 ml of solution containing the isopropylamine salt of glyphosate (Sigma P5671) and 0.125% Triton X-100, pH 6.8 such that the amount of active ingredient sprayed was equivalent to that present in commercial glyphosate products. For example, to achieve 32 oz/acre (1×) of herbicide containing 40% active ingredient (“ai”), 2.4 ul of 40% ai formulation was diluted into 1 ml water and sprayed on a plant in a 4-inch square pot (16 in^2). A mock application (0×) with surfactant only was also included. In some cases a second spray was applied 1-4 weeks later. Plants were kept in controlled growth rooms at 25° C. and 70% humidity with 16 hr light.
Seed-grown wild type plants were also sprayed. […] All 0× plants were healthy, including the non-GAT control plants. Three weeks later all of the surviving plants were sprayed with an 8× dose.

soybean plants = experiment: Greenhouse glyphosate spray of T0 soybean plants expressing GAT transgenes (discoloration score); type: in vivo
Method: Soybean plants expressing GAT variant transgenes were produced using the method of particle gun bombardment (see Klein et al. (1987) Nature 327:70-73) using a DuPont Biolistic PDS1000/He instrument. The selection agent used during the transformation process was hygromycin. Either the hygromycin selectable marker gene remained in the transgenic events or the hygromycin gene was excised by methods known in the art. DNA fragments were prepared with a synthetic constitutive promoter, a GAT variant and PinII terminator. The selectable marker gene, comprising the 35S CaMV promoter, HPT gene and NOS terminator, was cobombarded with the GAT gene variant as described above. Bombarded soybean embryogenic suspension tissue was cultured for one week in the absence of selection agent. Embryogenic suspension tissue was placed in liquid selection medium for 6 weeks. Putative transgenic suspension tissue was sampled for PCR analysis to determine the presence of the GAT gene. Putative transgenic suspension culture tissue was maintained in selection medium for 3 weeks to obtain enough tissue for plant regeneration. Suspension tissue was matured for 4 weeks using standard procedures; matured somatic embryos were desiccated for 4-7 days and then placed on germination induction medium for 2-4 weeks. Germinated plantlets were transferred to soil in cell pack trays for 3 weeks for acclimatization. Plantlets were potted to 10-inch pots in the greenhouse for evaluation of glyphosate resistance.
To determine the level of glyphosate resistance of transgenic soybeans expressing the GAT variant transgenes, T0 plants were sprayed with glyphosate (Roundup ULTRA MAX™) in the greenhouse. Plant resistance levels were evaluated by […] • 7=minor leaf/stem discoloration • 5=worse leaf/stem discoloration • 3=severely discolored plant or dying plant • 1=dead plant
One to four plants were sent to the greenhouse from each independent transgenic event. An additional 1-2 plants per event were grown in controlled environment growth chambers for seed production and were not sprayed with glyphosate. The greenhouse plants were sprayed at 1×, 2× or 4× glyphosate (1× glyphosate=26 ounces/acre of RoundUp ULTRA MAX™) 3-4 weeks after transfer to soil. The T0 plant discoloration scores with 2× and 4× spray rates are shown in Table 10 and Table 11, respectively.

[4] = Standard protocol for determination of kcat and KM (continuous spectrophotometric assay, Acetyl CoA hydrolysis at 235 nm); type: biochemical; details: purified protein; about 23° C.; 20 mM HEPES pH 6.8, 10% ethylene glycol, 0.2 mM acetyl CoA
Outline: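 KM from initial rates over 0.125–10 mM glyphosate, fitted by Lineweaver-Burke transformation of Michaelis-Menten; kcat/KM computed as kcat divided by KM. Continuous spectrophotometric read of acetyl-CoA hydrolysis at 235 nm.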

maize plants = experiment: Effect of temperature variation on glyphosate tolerance of T1 maize expressing GAT transgenes; type: in vivo; details: cool/cold, warm and hot conditions; 0×, 4×, 6×, 8× at V2; scored at 5 and 14 days
Method: Maize plants expressing GAT variant transgenes 10—4F2 (SEQ ID NO:202), 17-15H3 (SEQ ID NO:549), and 18-28D9b (SEQ ID NO:814) were produced using the methods described in Example 13. The effect of temperature on glyphosate tolerance was evaluated in T1 plants. The T1 plants were grown in cool/cold (day 14° C., night 8° C.), warm (day 28° C., night 20° C.), and hot (day 37° C., night 20° C.) conditions. T1 plants were sprayed at V2 with four different glyphosate spray treatments (0×, 4×, 6×, and 8×). Plants were scored at 5 and 14 days after treatment for leaf discoloration and plant height comparisons as described in Example 13.

[5] = 10 days after 2X glyphosate, count in parentheses

B1: SEQ ID NO:7: GAT enzyme isolated from a strain of B. licheniformis (strain B6) (protein)
chain: MIEVKPINAEDTYEIRHRILRPNQPLEACKYETDLLGGTFHLGGYYRDRLISIASFHQAEHSELEGQKQYQLRGMATLEGYREQKAGSTLIRHAEELLRKKGADLLWCNARTSVSGYYKKLGFSEQGGVYDIPPIGPHILMYKKLT
modifications: Unidentified microorganism derived from soil sample.; B6 GAT
Km [1]: ~2900 µM | Km ([1]; listed as B6): 2900 ± 200 µM | Kcat ([2]; calculated from Vmax at a known concentration of enzyme): 0.1 s⁻¹ | Km [2]: ~2 µM | Km ([2]; listed as B6): 2 µM | transfer of propionyl group to glyphosate [3]: glyphosate-dependent hydrolysis of propionyl CoA

B2: SEQ ID NO: 193: GAT gene variant (nucleic acid)
DNA: ATGCTAGAGGTGAAACCGATTAACGCAGAGGATACCTATGAACTAAGGCATAGAATACTCAGACCAAACCAGCCGATAGAAGCGTGTATGTATGAAAGCGATTTACTTCGTGGTGCATTTCACTTAGGCGGCTATTACAGGGGCAAACTGATTTCCATAGCTTCATTCCACCAGGCCGAGCACTCAGAACTCCAAGGCCAGAAACAGTACCAGCTCCGAGGTATGGCTACCTTGGAAGGTTATCGTGAGCAGAAAGCGGGATCGAGTCTAATTAAACACGCTGAAGAAATTCTTCGTAAGAGGGGGGCGGACTTGCTTTGGTGTAATGCGCGGACATCCGCCTCAGGCTACTACAAAAAGTTAGGCTTCAGCGAGCAGGGAGAGATATTTGAAACGCCGCCAGTAGGACCTCACATCCTGATGTATAAAAGGATCACATAA
modifications: Synthetic DNA Sequence; 0_5D3
notes: GAT gene variant
plant response two weeks after glyphosate spray (tobacco plants): survived the spraying procedure without signs of glyphosate damage | survival after second spray (tobacco plants): all GAT plants survived | % EVENTS @ 7-8 (soybean plants; 10 days after 2X glyphosate (1× = 26 ounces/acre), 7=minor leaf/stem discoloration): 15% | % EVENTS @ 3-6 (soybean plants; 10 days after 2X glyphosate, 5=worse discoloration, 3=severely discolored or dying): 11% | number of events @ 3-6 (soybean plants; [5]): 3 | number of events @ 7-8 (soybean plants; [5]): 4

B3: SEQ ID NO: 190: evolved GAT gene (nucleic acid)
DNA: ATGATAGAGGTGAAACCGATTAACGCAGAGGATACCTATGAACTAAGGCATAAAATACTCAGACCAAACCAGCCGATAGAAGCGTGTATGTATGAAAGCGATTTACTTCGTGGTGCATTTCACTTAGGCGGCTTTTACAGGGGCAAACTGATTTCCATAGCTTCATTCCACCAGGCCGAGCACTCAGACCTCCAAGGCCAGAAACAGTACCAGCTCCGAGGTATGGCTACCTTGGAAGGTTATCGTGATCAGAAAGCGGGATCGAGTCTAATTAGACACGCTGAACAAATTCTTCGTAAGAGGGGGGCGGACTTGCTTTGGTGCAATGCGCGGACATCCGCCTCAGGCTACTACAAAAAGTTAGGCTTCAGCGAGCAGGGAGAGATATTTGATACGCCGCCAGTAGGACCTCACATCCTGATGTATAAAAGGCTCACA
modifications: Synthetic DNA Sequence; 0_5B8
notes: evolved GAT gene
plant response two weeks after glyphosate spray (tobacco plants): survived the spraying procedure without signs of glyphosate damage | survival after second spray (tobacco plants): all GAT plants survived

B4: SEQ ID NO: 448: GAT polypeptide (protein)
chain: MLEVKPINAEDTYELRHKILRPNQPLEVCMYETDLLRGAFHLGGFYRGKLISIASFHQAEHSDLQGQKQYQLRGMATLEGYRDQKAGSSLIRHAEQILRKRGADMLWCNARTSASGYYKKLGFSEQGEVFETPPVGPHILMYKRLT
modifications: 0_6D10
notes: GAT polypeptide
Kcat [4]: 1.85 s⁻¹ | transfer of propionyl group to glyphosate [3]: glyphosate-dependent hydrolysis of propionyl CoA

B5: SEQ ID NO:601: GAT variant polypeptide (protein)
chain: MIEVKPINAEDTYELRHRILRPNQPIEACMFESDLLRGAFHLGGYYGGKLISIASFHQAEHSELQGQKQYQLRGMATLEGYREQKAGSSLIKHAEEILRKRGADLLWCNARTSASGYYKKLGFSEQGEVFDTPPVGPHILMYKRIT
modifications: D_S00260796_17-15H3
notes: GAT variant polypeptide
transfer of propionyl group to glyphosate [3]: glyphosate-dependent hydrolysis of propionyl CoA

B6: SEQ ID NO:816: GAT variant (protein)
chain: B5 chain with I19V, M30I, L36M, Y45F, K49R, I53V, I91V
modifications: Synthetic DNA Sequence; CDS (1)...(441); 20-8H12c
notes: GAT variant
transfer of propionyl group to glyphosate [3]: glyphosate-dependent hydrolysis of propionyl CoA

B7: SEQ ID NO:202: GAT variant transgene (nucleic acid)
DNA: B2 DNA with A92T, A134T, A275G, T313A, A433C
modifications: Synthetic DNA Sequence; 10_4F2
notes: GAT variant transgene
effect of temperature on glyphosate tolerance (maize plants): glyphosate tolerance is not adversely effected by the range of temperatures tested
